These results are taken from patent US20240382633A1, “RADIOPHARMACEUTICALS, METHODS FOR THE PRODUCTION THEREOF, AND USES IN TREATMENT, DIAGNOSIS AND IMAGING DISEASES” (priority 2021, published 2024).

A short description of one series: in vivo. On the set-up: species or system Balb/c nude mice. As to conditions: male, Balb/c nude, mouse, iv, total radioactivity, Percentage of injected dose. From the text: (§1) Healthy male Balb/c nude mice (˜18 g) from 8 weeks old were obtained from the ARC and used for this study. Mice were imported into the CAI animal holding facility and monitored for 1 week prior to the study in order to acclimatize to the environment prior to injection of cells. All animals were provided with free access to food and water before and during the imaging experiments which were approved by the University of Queensland Animal Ethics Committee (Approval #AIBN/CAI/105/19/ARC/NHMRC).
(§2) 8-week-old male Balb/c nude mice were injected (27G needle) subcutaneously with PC3 ([…]) cells in 50 μL of 50:50 matrigel and cells in phosphate buffered saline into the right flank of each mouse. There was no evidence of ulceration at the time of dosing; the animals were closely monitored and remained in good condition apart from the growth of tumours. […] Labelled peptides were injected via the tail vein (29G needle; ˜2-3 MBq) and then mice were imaged using the Siemens Inveon PET-CT instrument at the various time points.
(§3) Organs were excised at 24 hours, with the percentage of injected dose of the administered compound determined by ex vivo gamma counting (Table 1, FIG. 5). Values are averages across 4 mice.

Series [1] is described as follows: Stability of aqueous formulation (radiochemical purity over time). The settings on record: up to 48 hours post End of Synthesis, 3 validation batches. The series is classed as physicochemical. Here is the method: Product stability was monitored up to 48 hours post End of Synthesis (EOS) for 3 validation batches of [^64Cu]Formula (Ib) in an aqueous formulation prepared as outlined above. Due to time restrictions, identical stability sampling time points were not always achievable. […] This is attributed to radioactive decay reducing the peak area of radiolytic impurities to below detectable limits, rather than a true increase in the radiochemical purity.

The test system of another series is PC3 tumours. Briefly: in vivo. The arrangement: species or system Balb/c nude mice. The settings on record: mouse.
Text: as §1, §2, §3

Turning to `CC(C)C[C@H](NC(=O)C[C@H](O)[C@H](CC(C)C)NC(=O)[C@H](Cc1c[nH]cn1)NC(=O)CNC(=O)[C@@H](NC(=O)[C@H](C)NC(=O)[C@H](Cc1c[nH]c2ccccc12)NC(=O)[C@H](CCC(N)=O)NC(=O)[C@@H](Cc1ccccc1)NC(=O)CCOCCOCCOCCOCCNC(=O)CCCC(=O)NC12CNCCNCC(C)(CNCCNC1)CNCCNC2)C(C)C)C(N)=O` [[^64Cu]Formula (Ib), metal not drawn], the tissue uptake (usually the percentage of the injected dose found per gram of tissue) at 24 h came out at 0.13 ± 0.04 %ID/g in “in vivo” (Blood); 0.3 ± 0.07 %ID/g in “in vivo” (GI Tract); 0.24 ± 0.02 %ID/g in the series “in vivo” (Heart); 3.55 ± 0.79 %ID/g in “in vivo” (Kidneys); 1.52 ± 0.18 %ID/g in the series “in vivo” (Liver); 0.31 ± 0.08 %ID/g in “in vivo” (Lungs). For the same molecule, the tissue uptake at 24 h in the series “in vivo” (Pancreas) came to 0.23 ± 0.02 %ID/g; in “in vivo” (Spleen), 0.38 ± 0.06 %ID/g; in the series “in vivo” (Tail), 0.56 ± 0.87 %ID/g; in “in vivo” (Tumour), 4.09 ± 0.52 %ID/g. For the same molecule, the “radiochemical purity (stability)” value in series [1] was no less than 92.4%.

`CC(C)C[C@H](NC(=O)C[C@H](O)[C@H](CC(C)C)NC(=O)[C@H](Cc1c[nH]cn1)NC(=O)CNC(=O)[C@@H](NC(=O)[C@H](C)NC(=O)[C@H](Cc1c[nH]c2ccccc12)NC(=O)[C@H](CCC(N)=O)NC(=O)[C@@H](Cc1ccccc1)NC(=O)CCOCCOCCOCCOCCNC(=O)CCCC(=O)NC12CNCCNCC(NC(=O)CCCC(=O)NCCOCCOCCOCCOCCC(=O)N[C@H](Cc3ccccc3)C(=O)N[C@@H](CCC(N)=O)C(=O)N[C@@H](Cc3c[nH]c4ccccc34)C(=O)N[C@@H](C)C(=O)N[C@H](C(=O)NCC(=O)N[C@@H](Cc3c[nH]cn3)C(=O)N[C@@H](CC(C)C)[C@@H](O)CC(=O)N[C@@H](CC(C)C)C(N)=O)C(C)C)(CNCCNC1)CNCCNC2)C(C)C)C(N)=O` [[^64Cu]Formula (Ia), metal not drawn]: the tissue uptake at 24 h came out at 0.1 ± 0.05 %ID/g in the series “in vivo” (Blood); 0.44 ± 0.04 %ID/g in “in vivo” (GI Tract); 0.21 ± 0.03 %ID/g in the series “in vivo” (Heart); 6.81 ± 0.67 %ID/g in “in vivo” (Kidneys); 16.8 ± 1.55 %ID/g in “in vivo” (Liver); 0.36 ± 0.12 %ID/g in the series “in vivo” (Lungs). Besides, the values for the tissue uptake at 24 h in “in vivo” (Pancreas), in the series “in vivo” (Spleen) and in “in vivo” (Tumour) were 0.84 ± 0.06 %ID/g, 1.47 ± 0.2 %ID/g and 2.13 ± 0.86 %ID/g, respectively. Besides, the “Percentage of injected dose, Tail” value with PC3 tumours was 0.28 0.05 % ID/g.
